{"source": "patent US20240299505A1", "about": "(INDUSTRY UNIVERSITY COOPERATION FOUNDATION HANYANG …, published 2024)", "binders": {"B1": {"name": "fluorescently labeled CYBB (enzyme)", "chain": "MGNWAVNEGLSIFVILVWLGLNVFLFVWYYRVYDIPPKFFYTRKLLGSALALARAPAACLNFNCMLILLPVCRNLLSFLRGSSACCSTRVRRQLDRNLTFHKMVAWMIALHSAIHTIAHLFNVEWCVNARVNNSDPYSVALSELGDRQNESYLNFARKRIKNPEGGLYLAVTLLAGITGVVITLCLILIITSSTKTIRRSYFEVFWYTHHLFVIFFIGLAIHGAERIVRGQTAESLAVHNITVCEQKISEWGKIKECPIPQFAGNPPMTWKWIVGPMFLYLCERLVRFWRSQQKVVITKVVTHPFKTIELQMKKKGFKMEVGQYIFVKCPKVSKLEWHPFTLTSAPEEDFFSIHIRIVGDWTEGLFNACGCDKQEFQDAWKLPKIAVDGPFGTASEDVFSYEVVMLVGAGIGVTPFASILKSVWYKYCNNATNLKLKKIYFYWLCRDTHAFEWFADLLQLLESQMQERNNAGFLSYNIYLTGWDESQANHFAVHHDEEKDVITGLKQKTLYGRPNWDNEFKTIASQHPNTRIGVFLCGPEALAETLSKQSISNSESGPRGVHFIFNKENF"}, "B2": {"name": "endogenous NAMPT / extracellular NAMPT (eNAMPT) of mouse macrophages (BMDMs) and mouse colon (enzyme, UniProt Q99KQ4 1-491, looked up)", "chain": "MNAAAEAEFNILLATDSYKVTHYKQYPPNTSKVYSYFECREKKTENSKVRKVKYEETVFYGLQYILNKYLKGKVVTKEKIQEAKEVYREHFQDDVFNERGWNYILEKYDGHLPIEVKAVPEGSVIPRGNVLFTVENTDPECYWLTNWIETILVQSWYPITVATNSREQKKILAKYLLETSGNLDGLEYKLHDFGYRGVSSQETAGIGASAHLVNFKGTDTVAGIALIKKYYGTKDPVPGYSVPAAEHSTITAWGKDHEKDAFEHIVTQFSSVPVSVVSDSYDIYNACEKIWGEDLRHLIVSRSTEAPLIIRPDSGNPLDTVLKVLDILGKKFPVTENSKGYKLLPPYLRVIQGDGVDINTLQEIVEGMKQKKWSIENVSFGSGGALLQKLTRDLLNCSFKCSYVVTNGLGVNVFKDPVADPNKRSKKGRLSLHRTPAGNFVTLEEGKGDLEEYGHDLLHTVFKNGKVTKSYSFDEVRKNAQLNIEQDVAPH", "notes": "Endogenous protein of mouse cells or tissue, immunoprecipitated with anti-NAMPT; also called iNAMPT"}, "B3": {"name": "recombinant NAMPT protein (rNAMPT) (enzyme)", "chain": "MNPAAEAEFNILLATDSYKVTHYKQYPPNTSKVYSYFECREKKTENSKLRKVKYEETVFYGLQYILNKYLKGKVVTKEKIQEAKDVYKEHFQDDVFNEKGWNYILEKYDGHLPIEIKAVPEGFVIPRGNVLFTVENTDPECYWLTNWIETILVQSWYPITVATNSREQKKILAKYLLETSGNLDGLEYKLHDFGYRGVSSQETAGIGASAHLVNFKGTDTVAGLALIKKYYGTKDPVPGYSVPAAEHSTITAWGKDHEKDAFEHIVTQFSSVPVSVVSDSYDIYNACEKIWGEDLRHLIVSRSTQAPLIIRPDSGNPLDTVLKVLEILGKKFPVTENSKGYKLLPPYLRVIQGDGVDINTLQEIVEGMKQKMWSIENIAFGSGGGLLQKLTRDLLNCSFKCSYVVTNGLGINVFKDPVADPNKRSKKGRLSLHRTPAGNFVTLEEGKGDLEEYGQDLLHTVFKNGKVTKSYSFDEIRKNAQLNIELEAAHH", "notes": "Pulled down with anti-His, so it carries a His tag; also called eNAMPT (rNAMPT); unlabeled NAMPT"}, "B4": {"name": "endogenous ASC of mouse macrophages (BMDMs) (other, UniProt Q9EPB4 1-193, looked up)", "chain": "MGRARDAILDALENLSGDELKKFKMKLLTVQLREGYGRIPRGALLQMDAIDLTDKLVSYYLESYGLELTMTVLRDMGLQELAEQLQTTKEESGAVAAAASVPAQSTARTGHFVDQHRQALIARVTEVDGVLDALHGSVLTEGQYQAVRAETTSQDKMRKLFSFVPSWNLTCKDSLLQALKEIHPYLVMDLEQS"}}, "key": {"[1]": {"molecular_target": "B3", "experiment": "fluorescence binding: titration of fluorescently labeled CYBB with unlabeled rNAMPT, curve fit", "description": "Specifically, (A) normal human cases along with UC patients were used for IB with αNAMPT and αCYBB. For IB with αActin (upper), whole cell lysates (WCLs) were used. Representative gel images derived from five independent healthy controls and patients were shown. […] Five of ten data from normal human and UC patients were shown. […] (B) The colons of normal mice and mice with acute and chronic colitis were analyzed for IB with αNAMPT and αCYBB. WCLs were used for IB together with αActin. Biological replicates (n=10) for each condition were performed. (C) BMDMs were activated with LPS (100 ng/mL) for the indicated times (left), primed with LPS (100 ng/ml) for 4 hours, and then stimulated with ATP (1 mM) for the indicated times (right). IB in the supernatant (SN) with αNAMPT and WCL with αNAMPT or αActin. […] BMDMs were treated for IP with αNAMPT or αHis, and then treated sequentially IB with αTLR4, αCYBB, or αCYBA (D), and IB with αASC or αNLRP3(E). WCLs were used for IB with αTLR4, αCYBB, αCYBA, αASC, αNLRP3 or αActin."}, "[2]": {"molecular_target": "T1, endogenous NLRP3 of mouse macrophages (BMDMs) (mouse, UniProt Q8R4B8 1-1033, limits assumed)", "T1 sequence (Q8R4B8 whole entry)": "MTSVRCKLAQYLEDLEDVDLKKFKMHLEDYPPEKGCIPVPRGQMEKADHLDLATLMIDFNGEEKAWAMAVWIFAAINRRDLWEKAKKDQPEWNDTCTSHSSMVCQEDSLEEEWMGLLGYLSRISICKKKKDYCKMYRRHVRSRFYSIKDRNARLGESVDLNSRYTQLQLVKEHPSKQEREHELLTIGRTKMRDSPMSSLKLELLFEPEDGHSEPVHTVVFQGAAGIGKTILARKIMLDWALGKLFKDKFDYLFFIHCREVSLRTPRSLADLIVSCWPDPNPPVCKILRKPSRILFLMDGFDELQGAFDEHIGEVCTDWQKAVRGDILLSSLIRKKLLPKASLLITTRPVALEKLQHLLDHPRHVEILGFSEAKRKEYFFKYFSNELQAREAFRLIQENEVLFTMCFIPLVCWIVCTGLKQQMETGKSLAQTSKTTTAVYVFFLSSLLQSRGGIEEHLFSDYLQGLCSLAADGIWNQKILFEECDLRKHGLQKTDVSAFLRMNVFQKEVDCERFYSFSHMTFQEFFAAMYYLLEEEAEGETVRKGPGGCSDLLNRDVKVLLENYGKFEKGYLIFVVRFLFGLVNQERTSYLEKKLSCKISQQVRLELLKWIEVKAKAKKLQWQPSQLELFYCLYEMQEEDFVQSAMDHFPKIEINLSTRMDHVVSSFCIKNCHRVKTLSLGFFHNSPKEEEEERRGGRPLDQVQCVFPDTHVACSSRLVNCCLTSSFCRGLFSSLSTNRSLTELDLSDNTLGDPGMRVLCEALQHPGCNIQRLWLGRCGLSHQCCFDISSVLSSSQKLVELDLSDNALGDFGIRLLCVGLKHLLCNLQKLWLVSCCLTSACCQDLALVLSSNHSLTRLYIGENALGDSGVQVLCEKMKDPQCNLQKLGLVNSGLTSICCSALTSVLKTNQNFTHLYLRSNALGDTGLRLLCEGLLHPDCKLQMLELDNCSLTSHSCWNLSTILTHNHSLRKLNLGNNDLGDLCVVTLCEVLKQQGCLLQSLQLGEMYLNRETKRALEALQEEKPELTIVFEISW", "experiment": "co-IP (anti-NAMPT) from LPS/ATP-treated BMDMs, anti-NLRP3 blot"}, "[3]": {"molecular_target": "T2, endogenous CYBB of mouse macrophages (BMDMs) and mouse colon (mouse, UniProt Q61093 2-570)", "T2 construct": "whole, on cells; Detected by immunoblot after co-immunoprecipitation from lysates; also called NOX2; gp91Phox", "T2 sequence (looked up)": "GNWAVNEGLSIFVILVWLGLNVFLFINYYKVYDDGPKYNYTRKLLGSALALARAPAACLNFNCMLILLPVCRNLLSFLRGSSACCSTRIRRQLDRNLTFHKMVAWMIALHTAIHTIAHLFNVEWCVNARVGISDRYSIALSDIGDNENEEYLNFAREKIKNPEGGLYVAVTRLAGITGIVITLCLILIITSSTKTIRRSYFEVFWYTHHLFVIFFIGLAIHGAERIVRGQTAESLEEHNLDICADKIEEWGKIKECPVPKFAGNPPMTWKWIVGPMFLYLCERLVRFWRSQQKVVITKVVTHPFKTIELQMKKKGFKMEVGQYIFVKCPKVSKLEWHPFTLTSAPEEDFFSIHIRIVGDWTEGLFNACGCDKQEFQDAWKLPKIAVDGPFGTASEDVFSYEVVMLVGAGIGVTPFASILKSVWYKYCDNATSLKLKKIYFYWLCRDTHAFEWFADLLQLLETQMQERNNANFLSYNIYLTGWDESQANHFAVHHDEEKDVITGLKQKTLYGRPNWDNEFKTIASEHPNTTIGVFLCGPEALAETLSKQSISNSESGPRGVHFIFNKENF", "experiment": "co-IP (anti-His or anti-NAMPT) from mouse colon tissue, anti-CYBB blot"}, "[4]": {"molecular_target": "T3, endogenous TLR4 of mouse macrophages (BMDMs) and mouse colon (mouse, UniProt Q9QUK6 26-835)", "T3 construct": "whole, on cells; Detected by immunoblot after co-immunoprecipitation from lysates", "T3 sequence (looked up)": "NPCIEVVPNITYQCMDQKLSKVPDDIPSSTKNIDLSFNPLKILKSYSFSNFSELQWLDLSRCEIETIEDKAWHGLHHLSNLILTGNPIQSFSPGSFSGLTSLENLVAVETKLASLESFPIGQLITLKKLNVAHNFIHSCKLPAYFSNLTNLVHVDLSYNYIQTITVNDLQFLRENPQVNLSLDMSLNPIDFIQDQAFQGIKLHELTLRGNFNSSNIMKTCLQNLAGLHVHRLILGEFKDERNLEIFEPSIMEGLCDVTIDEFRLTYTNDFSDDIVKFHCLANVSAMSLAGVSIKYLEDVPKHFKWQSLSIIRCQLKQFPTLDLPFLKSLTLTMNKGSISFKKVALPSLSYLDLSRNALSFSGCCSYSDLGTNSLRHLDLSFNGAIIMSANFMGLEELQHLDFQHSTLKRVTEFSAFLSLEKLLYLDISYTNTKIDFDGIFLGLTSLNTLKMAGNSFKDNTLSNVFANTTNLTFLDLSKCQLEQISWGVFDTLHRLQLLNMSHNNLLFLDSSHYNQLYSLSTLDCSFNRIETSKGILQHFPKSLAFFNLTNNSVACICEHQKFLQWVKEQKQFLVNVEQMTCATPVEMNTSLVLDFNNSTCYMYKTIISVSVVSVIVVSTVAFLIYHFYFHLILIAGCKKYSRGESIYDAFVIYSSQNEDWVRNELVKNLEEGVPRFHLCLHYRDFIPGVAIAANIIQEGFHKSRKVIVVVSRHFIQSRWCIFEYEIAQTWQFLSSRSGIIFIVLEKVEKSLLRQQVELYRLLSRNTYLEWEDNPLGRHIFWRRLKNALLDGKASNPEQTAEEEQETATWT", "experiment": "co-IP (anti-His or anti-NAMPT) from mouse colon tissue, anti-TLR4 blot"}, "[5]": {"molecular_target": "T1, endogenous NLRP3 of mouse macrophages …", "experiment": "co-IP (anti-His) from BMDMs incubated with rNAMPT, anti-NLRP3 blot"}, "[6]": {"molecular_target": "B2", "experiment": "co-IP (anti-NAMPT) from LPS/ATP-treated BMDMs, anti-ASC blot"}, "[7]": {"molecular_target": "B3", "experiment": "co-IP (anti-His) from BMDMs incubated with rNAMPT, anti-ASC blot"}}}
{"binder": "B1", "values": [{"measurement": "Kd", "setting": "[1]", "value": 896, "unit": "nM"}]}
{"binder": "B2", "values": [{"measurement": "binding result", "setting": "[2]", "value": "no binding"}, {"measurement": "binding result", "setting": "[3]", "value": "binds"}, {"measurement": "binding result", "setting": "[4]", "value": "binds"}]}
{"binder": "B3", "values": [{"measurement": "binding result", "setting": "[5]", "value": "no binding (tested: 1 ug/mL rNAMPT)"}]}
{"binder": "B4", "values": [{"measurement": "binding result", "setting": "[6]", "value": "no binding"}, {"measurement": "binding result", "setting": "[7]", "value": "no binding (tested: 1 ug/mL rNAMPT)"}]}
